One assay addresses T1, Q365A (human, UniProt P48960).
T1 construct: transiently expressed on the surface of ExpiCHO cells, gated by anti-V5 tag staining; also called CD97 GAIN mutant Q365A expressed on ExpiCHO cells
T1 sequence (receptor, looked up): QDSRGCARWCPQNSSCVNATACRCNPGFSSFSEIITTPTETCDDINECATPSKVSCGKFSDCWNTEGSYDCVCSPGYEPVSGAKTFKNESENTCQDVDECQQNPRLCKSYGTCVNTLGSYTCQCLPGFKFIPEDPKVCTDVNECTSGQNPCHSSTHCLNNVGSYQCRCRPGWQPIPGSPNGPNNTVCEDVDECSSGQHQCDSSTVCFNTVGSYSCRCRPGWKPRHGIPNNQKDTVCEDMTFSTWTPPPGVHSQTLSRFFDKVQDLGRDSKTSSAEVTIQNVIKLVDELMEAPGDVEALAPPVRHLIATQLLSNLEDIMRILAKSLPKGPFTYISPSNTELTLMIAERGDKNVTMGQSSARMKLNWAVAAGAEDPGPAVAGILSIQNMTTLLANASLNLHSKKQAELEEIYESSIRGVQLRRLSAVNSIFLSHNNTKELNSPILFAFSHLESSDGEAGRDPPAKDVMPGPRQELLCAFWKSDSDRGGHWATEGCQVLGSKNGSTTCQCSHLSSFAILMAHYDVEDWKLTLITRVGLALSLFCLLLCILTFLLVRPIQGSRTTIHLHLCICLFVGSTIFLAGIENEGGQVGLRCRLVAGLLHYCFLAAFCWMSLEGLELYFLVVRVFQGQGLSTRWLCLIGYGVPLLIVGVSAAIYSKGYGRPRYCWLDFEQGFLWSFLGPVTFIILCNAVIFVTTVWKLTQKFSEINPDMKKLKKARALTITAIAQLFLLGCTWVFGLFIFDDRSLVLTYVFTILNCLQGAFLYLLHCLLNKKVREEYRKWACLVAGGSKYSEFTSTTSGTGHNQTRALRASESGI
Kind of assay: cell-based binding assay: CD97 GAIN mutant transiently expressed on ExpiCHO cells, A8 Fab titrated, flow cytometry MFI, 1:1 fit; upper panel. In general terms: Flow cytometry measures light scatter and fluorescence of single cells or particles in a stream.

Assay [1] addresses T2, CD97 (ADGRE5) isoform 2 ectodomain, purified and biotinylated (human, UniProt P48960 21-552, biotinylated in vitro using the BirA enzyme).
T2 construct: the whole entry for isoform 2 is named here; also called CD97 isoform 2
T2 sequence: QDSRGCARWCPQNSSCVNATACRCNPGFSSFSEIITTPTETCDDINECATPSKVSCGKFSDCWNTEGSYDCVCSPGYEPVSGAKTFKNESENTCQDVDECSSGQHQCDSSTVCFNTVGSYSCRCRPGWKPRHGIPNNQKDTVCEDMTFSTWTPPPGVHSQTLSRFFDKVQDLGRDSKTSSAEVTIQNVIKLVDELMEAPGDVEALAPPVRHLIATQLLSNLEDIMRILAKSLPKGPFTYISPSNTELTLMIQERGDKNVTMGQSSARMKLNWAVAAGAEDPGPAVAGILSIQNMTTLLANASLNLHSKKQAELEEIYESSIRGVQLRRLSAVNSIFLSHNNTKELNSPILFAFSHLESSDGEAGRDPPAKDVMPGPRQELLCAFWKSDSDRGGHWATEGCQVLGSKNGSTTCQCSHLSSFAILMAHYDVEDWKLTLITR
Kind of assay: bead-based binding titration (biotinylated antigen on streptavidin beads, flow cytometry), 1:1 fit.

The target of assay [2] is T3, CD97 (ADGRE5) isoform 1 ectodomain, purified and biotinylated (human, UniProt P48960 21-552, limits assumed, biotinylated in vitro using the BirA enzyme).
T3 construct: the whole entry for isoform 1 is named here; also called CD97 isoform 1; Biotinylated CD97 isoform 1
T3 sequence: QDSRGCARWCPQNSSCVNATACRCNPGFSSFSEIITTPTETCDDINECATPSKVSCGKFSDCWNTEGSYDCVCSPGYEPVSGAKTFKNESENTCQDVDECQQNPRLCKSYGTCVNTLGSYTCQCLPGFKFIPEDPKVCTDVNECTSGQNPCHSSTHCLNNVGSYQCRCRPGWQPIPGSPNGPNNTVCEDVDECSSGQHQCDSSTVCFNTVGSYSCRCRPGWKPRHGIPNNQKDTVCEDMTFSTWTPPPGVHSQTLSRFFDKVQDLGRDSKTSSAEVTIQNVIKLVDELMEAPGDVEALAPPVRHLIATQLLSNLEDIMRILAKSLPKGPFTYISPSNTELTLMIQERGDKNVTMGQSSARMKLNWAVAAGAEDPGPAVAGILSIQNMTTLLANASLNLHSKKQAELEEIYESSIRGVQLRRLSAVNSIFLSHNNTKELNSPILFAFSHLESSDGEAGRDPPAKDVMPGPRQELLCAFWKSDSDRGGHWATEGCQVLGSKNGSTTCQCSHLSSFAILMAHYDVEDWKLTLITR
The description is as above.

The target in assay [3] is T4, CD97 GAIN mutant T524K expressed on ExpiCHO cells (human, UniProt P48960 21-835).
T4 construct: numbering of isoform 1; whole entry named
T4 sequence: T1 sequence (receptor, looked up) with A345Q, T504K
In words: cell-based binding assay: CD97 GAIN mutant T524K transiently expressed on ExpiCHO cells, A8 Fab titrated, flow cytometry MFI; lower panel.
Description: (§1) KD values were determined from the curve fitting of a 1:1 binding model.

Changes are numbered by the printed parent chain.

The text below walks through data of patent US20250051474A1, “ANTI-CD97 ANTIBODIES AND ANTIBODY-DRUG CONJUGATES” (New York University, priority 2023, published 2025).

Description for Q365A: as §1

B1: Antibody clone A8, Fab format (Fab, V domains shown)
VH: EVQLVESGGGLVQPGGSLRLSCAASGFTISSYSIHWVRQAPGKGLEWVASISPYYGSTSYADSVKGRFTISADTSKNTAYLQMNSLRAEDTAVYYCARSWYYYEQNPYWYQKEEQALDYWGQGTLVTVSS
VL: DIQMTQSPSSLSASVGDRVTITCRASQSVSSAVAWYQQKPGKAPKLLIYSASSLYSGVPSRFSGSRSGTDFTLTISSLQPEDFATYYCQQSVYSPVTFGQGTKVEIKR
notes: Fab; also called wild type A8
As to B1, the Kd amounted to 56 nM in the assay with Q365A, 2.2 nM in assay [1] and 2.4 nM in assay [2]. The binding result in assay [3] is given as “no binding (tested: 1000 nM)”.

Broadly, the Kd is the equilibrium constant for the complex coming apart.
